Source: paper PMC10339645, “Kinetic characterization of annotated glycolytic enzymes present in cellulose-fermenting Clostridium thermocellum suggests different metabolic roles” (Biotechnology for Biofuels and Bioproducts, 2023)

Tests used:
[1] = target: T1, PfkA (Acetivibrio thermocellus, UniProt A3DEW4); test: coupled NADH oxidation at […] nm, relative activity; format: biochemical; details: inhibitor; GTP as phosphate donor; 2.5 mM MgCl2; NH4Cl; 55 °C
T1 construct: N-terminal His6 tag with ~4-kDa linker (pRSET-A, plasmid pAHCT1261), tag kept; codon-optimized, E. coli T7 Shuffle; ~40 kDa monomer

[2] = target: T2, PfkB (Acetivibrio thermocellus, UniProt A3DCE8); test: coupled NADP+ reduction at […] nm, relative activity; format: biochemical; details: inhibitor; GTP as phosphate donor 2.24 mM; fructose 2.24 mM; 55 °C
T2 construct: gene Cthe_0389; N-terminal His6 tag with ~4-kDa linker (pRSET-A, plasmid pAHCT0389), tag kept; codon-optimized, E. coli T7 Shuffle; ~40 kDa monomer

[3] = target: T2, PfkB; test: coupled NADP+ reduction at […] nm, relative activity; format: biochemical; details: inhibitor; fructose 2.24 mM, phosphate donor 2.24 mM; 55 °C
[4] = target: T1, PfkA; test: coupled NADH oxidation at […] nm, relative activity; format: biochemical; details: inhibitor; 2 mM F6P, 2 mM ATP or GTP; NH4Cl; 55 °C
[5] = substrate: Nc1nc2c(ncn2[C@@H]2O[C@H](COP(=O)(O)OP(=O)(O)OP(=O)(O)O)[C@@H](O)[C@H]2O)c(=O)[nH]1; test: purified protein; format: biochemical, Acetivibrio thermocellus
[6] = substrate: Nc1ncnc2c1ncn2[C@@H]1O[C@H](COP(=O)(O)OP(=O)(O)OP(=O)(O)O)[C@@H](O)[C@H]1O; test: purified protein; format: biochemical, Acetivibrio thermocellus
[7] = fructose 2 mM constant, 5 mM MgCl2, pH 7.5, 55 °C
[8] = F6P 2 mM constant, 5 mM MgCl2, 2 mM NH4Cl, pH 7.5, 55 °C
[9] = F6P 2 mM constant, 5 mM MgCl2, 2 mM NH4Cl, pH 7.5, 55 °C, extrapolated beyond 2 mM ATP

## O=P(O)(O)OP(=O)(O)O [PPi]
[1]
  % relative activity at 0.05 mM: 21%

## Nc1ncnc2c1ncn2[C@@H]1O[C@H](COP(=O)(O)O)[C@@H](O)[C@H]1O [AMP]
[2]
  % relative activity at 2.24 mM: 38%

## Nc1ncnc2c1ncn2[C@@H]1O[C@H](COP(=O)(O)OP(=O)(O)O)[C@@H](O)[C@H]1O [ADP]
[2]
  % relative activity at 2.24 mM: 38%

## OC[C@H]1OC(O)[C@H](O)[C@@H](O)[C@H]1O (stereo partly shown) [galactose]
[3]
  relative activity at 2.24 mM: Galactose also caused a noticeable decrease in activity

## C=C(OP(=O)(O)O)C(=O)O [PEP]
[4]
  relative activity at 2 mM: addition of PEP or PPi caused a decrease in the activity of PfkA

B1: PfkB (Acetivibrio thermocellus ATCC 27405) (protein)
chain: MFDVVAVGELLIDFLPAGTNENGMPLFSSNPGGAPANVLAMLSKLGAKTAFIGKVGKDGFGQFLKATLDNAGIDTSNLLMSSSEMTTLAFVHLNEKGDRSFSFYRKHCADVSLDAGELDKDLLRTCHFLHFGAVSLTDEPSRTATLEAARIAKEAGAIISYDPNYRPALWSNEHEARKYMLKAVEYADLVKVSEEELWLLAESEDFSKGAHKLLAMGPSVVFVTCGEKGSYVFTGSCKANHCGYDVKVVDTTGAGDAFVGAMLWQLRGMSLEEISQICEQKWGELLAFSNAAGTIVATKKGAIPAMPDLDTINTFMRQFLEEK
notes: N-terminal His6 tag with ~4-kDa linker (pRSET-A, plasmid pAHCT0389), tag kept; codon-optimized, E. coli T7 Shuffle; ~40 kDa monomer
[5]; [7]
  Km: 200 ± 80 µM
  Vmax: 124 µmol/min/mg
[6]; [7]
  Km: 400 ± 100 µM
  Vmax: 110 µmol/min/mg

B2: PfkA (Acetivibrio thermocellus ATCC 27405) (protein)
chain: MSSVRTIGVLTSGGDAPGMNAAIRSVVRTGLYYGFKVLGIRKGFNGLINGDIEELTARSVGDIIHRGGTILQTARSPQFKTEEGLKKAMSMAKVFGIDALVVIGGDGSYRGARDISKLGLNVIGIPGTIDNDIGCTDYTIGFDTAMNTVQDAIDKIRDTAYSHERCSVLEVMGRHAGYIAVNVSISGGAEAVVLPEKPFDMDTDVIKPIIEGRNRGKKHYLVIVAEGGEGKAIEIAKEITEKTGIEARATILGHIQRGGSPTVYDRVMASQMGAKAVEVLMENKRNRVIVFKDNQIGDMDLEEALQVKKTISEDLIQLSKILAL
notes: N-terminal His6 tag with ~4-kDa linker (pRSET-A, plasmid pAHCT1261), tag kept; codon-optimized, E. coli T7 Shuffle; ~40 kDa monomer
[5]; [8]
  Km: 200 ± 20 µM
  Vmax: 282 µmol/min/mg
[6]; [9]
  Km: 2500 ± 960 µM
  Vmax: 430 µmol/min/mg
